The target in assay [1] is 30S–IF3_(488) complex (30S ribosomal subunit with bound Alexa-488-labelled IF3) (UniProt P0A707). Kind of assay: FRET or BRET; stopped-flow chase as a1 (0.05 µM complex, 0.5 µM unlabelled IF1, TAKM7 buffer), with 100 µM Tigecycline (Tig).
The target in assay [2] is 30S pre-initiation complex (30S subunit, IF3_(488), IF2, mRNA, GTP) (UniProt P0A707). The assay is described as above.
Assay [3] has as its target 30S initiation complex (30S subunit, IF3_(488), IF2, mRNA, GTP, fMet-tRNA^fMet) (UniProt P0A707). Described as above.
Assay [4] shares this target. Kind of assay: FRET or BRET; stopped-flow chase as a1 (0.05 µM complex, 0.5 µM unlabelled IF1, TAKM7 buffer), with 100 µM Oxytetracycline (Otc).
The target in assay [5] is 30S–IF3_(488) complex (30S ribosomal subunit with bound Alexa-488-labelled IF3) (UniProt P0A707). The assay is described as above.
For assay [6], the target named is 30S pre-initiation complex (30S subunit, IF3_(488), IF2, mRNA, GTP) (UniProt P0A707). The description is as above.
Assay [7] deals with 30S initiation complex (30S subunit, IF3_(488), IF2, mRNA, GTP, fMet-tRNA^fMet) (UniProt P0A707). Described as above. The source holds these as a separate data set.
In assay [8] the target is 30S–IF3_(488) complex (30S ribosomal subunit with bound Alexa-488-labelled IF3) (UniProt P0A707). Kind of assay: FRET or BRET; stopped-flow chase as a1 (0.05 µM complex, 0.5 µM unlabelled IF1, TAKM7 buffer), with 100 µM Demeclocycline (Dem).
Assay [9] addresses 30S pre-initiation complex (30S subunit, IF3_(488), IF2, mRNA, GTP) (UniProt P0A707). The description is as above.
Assay [10] addresses 30S initiation complex (30S subunit, IF3_(488), IF2, mRNA, GTP, fMet-tRNA^fMet) (UniProt P0A707). The description is as above.
In assay [11] the target is 30S–IF3_(488) complex (30S ribosomal subunit with bound Alexa-488-labelled IF3) (UniProt P0A707). Kind of assay: FRET or BRET; stopped-flow chase: 0.05 µM 30S complex with IF3_(488) (donor) and IF1_(540Q) (acceptor) mixed with 10-fold excess (0.5 µM) unlabelled IF1, donor fluorescence in time, single exponential fit; TAKM7 buffer (25 mM Tris-HCl pH 7.4, 70 mM NH4Ac, 30 mM KCl, 7 mM MgCl2); no tetracycline.

Assay [12] deals with 30S pre-initiation complex (30S subunit, IF3_(488), IF2, mRNA, GTP) (UniProt P0A707). The assay is described as above.
Assay [13] deals with 30S initiation complex (30S subunit, IF3_(488), IF2, mRNA, GTP, fMet-tRNA^fMet) (UniProt P0A707). The description is as above.

Turning to “IF1 D4C labelled with Atto-540Q (natural protein)”, the koff was determined as 0.021 s⁻¹ in assay [1]; 0.015 s⁻¹ in [2]; 0.015 s⁻¹ in [3]; 0.3 s⁻¹ in assay [4]; 0.26 s⁻¹ in assay [5]; 0.02 s⁻¹ in assay [6]. Further, the koff in assay [7] worked out at 0.03 s⁻¹; in assay [8], 0.2 s⁻¹; in assay [9], 0.02 s⁻¹; in assay [10], 0.012 s⁻¹; in assay [11] it was 0.3 s⁻¹; in [12], 0.03 s⁻¹. In addition, the koff in [13] was found to be 0.02 s⁻¹.

The record behind these values is PMC8273347.
